Patent publication US20180326058A1 (Chugai, published 2018)

T1: mouse FcgRI (mouse, UniProt P26151 25-297)
T1 construct: Used as the soluble analyte in Biacore; also called mFcgRI
T1 sequence (looked up): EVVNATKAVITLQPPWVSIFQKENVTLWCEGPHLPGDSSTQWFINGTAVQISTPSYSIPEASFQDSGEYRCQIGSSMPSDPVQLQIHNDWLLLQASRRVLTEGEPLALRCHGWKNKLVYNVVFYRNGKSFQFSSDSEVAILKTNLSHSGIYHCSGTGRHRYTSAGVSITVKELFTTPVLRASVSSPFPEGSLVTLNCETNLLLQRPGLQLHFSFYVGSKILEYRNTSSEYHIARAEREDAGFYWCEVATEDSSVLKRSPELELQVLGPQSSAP

T2: mouse FcgRII (mouse, UniProt P08101 30-210)
T2 construct: Used as the soluble analyte in Biacore; also called mFcgRII
T2 sequence (looked up): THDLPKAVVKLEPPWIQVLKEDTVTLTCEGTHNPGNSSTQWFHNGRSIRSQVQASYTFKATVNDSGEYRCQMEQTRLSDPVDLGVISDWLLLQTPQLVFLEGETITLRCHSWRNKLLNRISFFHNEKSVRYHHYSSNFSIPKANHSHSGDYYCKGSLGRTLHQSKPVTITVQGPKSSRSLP

T3: mouse FcgRIII (mouse, UniProt P08508 31-215)
T3 construct: Used as the soluble analyte in Biacore; also called mFcgRIII
T3 sequence (looked up): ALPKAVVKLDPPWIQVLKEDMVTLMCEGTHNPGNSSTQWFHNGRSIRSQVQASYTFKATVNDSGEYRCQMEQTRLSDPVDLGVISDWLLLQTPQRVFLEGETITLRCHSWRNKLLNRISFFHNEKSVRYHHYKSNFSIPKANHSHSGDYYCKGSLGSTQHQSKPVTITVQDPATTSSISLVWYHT

T4: mouse FcgRIV (mouse, UniProt A0A0B4J1G0 21-203)
T4 construct: Used as the soluble analyte in Biacore; also called mFcgRIV
T4 sequence: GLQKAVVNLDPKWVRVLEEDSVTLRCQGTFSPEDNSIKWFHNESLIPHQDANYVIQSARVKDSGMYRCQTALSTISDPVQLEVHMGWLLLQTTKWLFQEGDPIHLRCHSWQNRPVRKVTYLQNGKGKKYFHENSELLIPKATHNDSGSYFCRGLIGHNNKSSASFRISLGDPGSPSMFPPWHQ

T5: mouse CD3 (mouse)
T5 chain: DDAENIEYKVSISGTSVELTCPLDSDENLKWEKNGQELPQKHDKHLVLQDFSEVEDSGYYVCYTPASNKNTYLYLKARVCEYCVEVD


Legend:
[1] = molecular target: T1, mouse FcgRI; experiment: SPR Biacore T200, antibody captured on Protein A/G, FcgR as analyte, 25 C
Procedure: (§1) Anti-mouse CTLA4 antibody hUH02hUL01-mFa55 and control antibody hUH02hUL01-mIgG2a (the heavy chain variable region UH02 is SEQ ID NO: 28, the light chain variable region UL01 is SEQ ID NO: 29, the heavy chain constant region mIgG2a is SEQ ID NO: 32, and the light chain constant region mk1 is SEQ ID NO: 31) purified and prepared by the method of Reference Example 2-1 were analyzed for their antigen-antibody reactions with various mouse FcgRs (mFcgRI, II, III, and IV) using Biacore T200 (GE Healthcare). The running buffer used was 20 mmol/L ACES, 150 mmol/L NaCl, 0.05% (w/v) Tween20 at pH7.4, and measurements were taken at 25° C. Protein A/G was immobilized onto a Sensor Chip CM7 by amine coupling. hUH02hUL01-mFa55 was captured onto the sensorchip, and then FcgR was allowed to interact as an analyte for 120 seconds, and change in the bound amount was observed. The running buffer was used for dilution of hUH02hUL01-mFa55. The measurement results were analyzed by curve fitting using the Biacore T200 Evaluation Software (GE Healthcare) to calculate the association rate constants ka (1/Ms) and the dissociation rate constants kd (l/s). From those values, the dissociation constants KD (M) were determined.

[2] = molecular target: T2, mouse FcgRII; experiment: as above
Procedure: as §1

[3] = molecular target: T3, mouse FcgRIII; experiment: as above
Procedure: as §1

[4] = molecular target: T4, mouse FcgRIV; experiment: as above
Procedure: as §1

[5] = molecular target: T5, mouse CD3; experiment: SPR Biacore T200, bispecific antibody captured on Protein A/G, antigen as analyte, 37 C
Procedure: (§2) Anti-mouse CTLA4/anti-mouse CD3 bispecific antibodies (hUH02UL01/2C11-F760) purified and prepared by the method of Reference Example 3-1 were analyzed for their antigen-antibody reactions with each antigen (mCTLA4 and mCD3) using Biacore T200 (GE Healthcare). The running buffer used was HBS-EP+ at pH7.4, and measurements were taken at 37° C. Protein A/G was immobilized onto a Sensor Chip CM4 by amine coupling. hUH02UL01/2C11-F760 was captured onto the sensor chip, and then the antigen (mouse CTLA4 or mouse CD3) was allowed to interact as an analyte (for 120 seconds for mouse CTLA4 and for 90 seconds for mouse CD3), and changes in the bound amount were observed. The running buffer was used for dilution of hUH02UL01/2C11-F760. The measurement results were analyzed by curve fitting using the Biacore T200 Evaluation Software (GE Healthcare) to calculate the association rate constants ka (1/Ms) and the dissociation rate constants kd (l/s). From those values, the dissociation constants KD (M) were determined.

[6] = molecular target: T6, mouse CTLA4 (mouse, UniProt P09793 36-161, limits assumed); experiment: as above
T6 construct: Soluble antigen used as the analyte in Biacore; also called mCTLA4
Procedure: as §2

Binder	Kd [1] [nM]	koff [1] [s⁻¹]	kon [1] [M⁻¹ s⁻¹]	Kd [2] [nM]	koff [2] [s⁻¹]	kon [2] [M⁻¹ s⁻¹]	Kd [3] [nM]	koff [3] [s⁻¹]	kon [3] [M⁻¹ s⁻¹]	Kd [4] [nM]	koff [4] [s⁻¹]	kon [4] [M⁻¹ s⁻¹]	Kd [5] [nM]	koff [5] [s⁻¹]	kon [5] [M⁻¹ s⁻¹]	Kd [6] [nM]	koff [6] [s⁻¹]	kon [6] [M⁻¹ s⁻¹]
control antibody hUH02hUL01-mIgG2a (antibody, Same variable regions as hUH02hUL01-mFa55, with an unmodified mouse IgG2a constant region) heavy: QVQLQESGPGLVKPSETLSLTCTVSGYSISSGYGWNWIRQPPGKGLEWIGFIYYEGSTYYNPSIKSRISITRDTSKNQFFLQVNSVTTEDTATYYCARQTGYFDYWGQGTLVTVSSAKTTAPSVYPLAPVCGDTTGSSVTLGCLVKGYFPEPVTLTWNSGSLSSGVHTFPAVLQSDLYTLSSSVTVTSSTWPSQSITCNVAHPASSTKVDKKIEPRGPTIKPCPPCKCPAPNLLGGPSVFIFPPKIKDVLMISLSPIVTCVVVDVSEDDPDVQISWFVNNVEVHTAQTQTHREDYNSTLRVVSALPIQHQDWMSGKEFKCKVNNKDLPAPIERTISKPKGSVRAPQVYVLPPPEEEMTKKQVTLTCMVTDFMPEDIYVEWTNNGKTELNYKNTEPVLDSDGSYFMYSKLRVEKKNWVERNSYSCSVVHEGLHNHHTTKSFSRTPGK light: DIVMTQSPDSLAVSLGERATINCKSSQSLFNSNAKTNYLNWYQQKPGQPPKLLIYYASTRHTGVPDRFSGSGSGTDFTLTISSLQAEDVAVYYCQQWYDYPYTFGAGTKVEIKRADAAPTVSIFPPSSEQLTSGGASVVCFLNNFYPKDINVKWKIDGSERQNGVLNSWTDQDSKDSTYSMSSTLTLTKDEYERHNSYTCEATHKTSTSPIVKSFNRNEC	6.1	0.0047	780000	780	1.1	1.3e+06	250	0.51	2e+06	13	0.016	1.2e+06						
anti-mouse CTLA4 antibody hUH02hUL01-mFa55 (antibody, mouse IgG2a, kappa, Mouse IgG2a/kappa format; also called hUH02UL01-mFa55; ADCC-enhanced antibody) heavy: QVQLQESGPGLVKPSETLSLTCTVSGYSISSGYGWNWIRQPPGKGLEWIGFIYYEGSTYYNPSIKSRISITRDTSKNQFFLQVNSVTTEDTATYYCARQTGYFDYWGQGTLVTVSSAKTTAPSVYPLAPVCGDTTGSSVTLGCLVKGYFPEPVTLTWNSGSLSSGVHTFPAVLQSDLYTLSSSVTVTSSTWPSQSITCNVAHPASSTKVDKKIEPRGPTIKPCPPCKCPAPNLLGGPDVFIFPPKIKDVLMISLSPIVTCVVVDVSEDDPDVQISWFVNNVEVHTAQTQTHREDYNSTLRVVSALPIQHQDWMSGKEFKCKVNNKDLPAPIERTISKPKGSVRAPQVYVLPPPEEEMTKKQVTLTCMVTDFMPEDIYVEWTNNGKTELNYKNTEPVLDSDGSYFMYSKLRVEKKNWVERNSYSCSVVHEGLHNHHTTKSFSRTPGK light: DIVMTQSPDSLAVSLGERATINCKSSQSLFNSNAKTNYLNWYQQKPGQPPKLLIYYASTRHTGVPDRFSGSGSGTDFTLTISSLQAEDVAVYYCQQWYDYPYTFGAGTKVEIKRADAAPTVSIFPPSSEQLTSGGASVVCFLNNFYPKDINVKWKIDGSERQNGVLNSWTDQDSKDSTYSMSSTLTLTKDEYERHNSYTCEATHKTSTSPIVKSFNRNEC	2.5	0.0031	1.2e+06	370	0.76	2.1e+06	260	0.62	2.4e+06	1.9	0.0028	1.5e+06						
anti-mouse CTLA4/anti-mouse CD3 bispecific antibody (hUH02UL01/2C11-F760) (bispecific antibody, human IgG1, kappa, N297A, also called T cell-redirecting antibody) heavy 1: QVQLQESGPGLVKPSETLSLTCTVSGYSISSGYGWNWIRQPPGKGLEWIGFIYYEGSTYYNPSIKSRISITRDTSKNQFFLQVNSVTTEDTATYYCARQTGYFDYWGQGTLVTVSSASTKGPSVFPLAPSSKSTSGGTAALGCLVKDYFPEPVTVSWNSGALTSGVHTFPAVLQSSGLYSLSSVVTVPSSSLGTQTYICNVNHKPSNTKVDKKVEPKSCDKTHTCPPCPAPELRGGPKVFLFPPKPKDTLMISRTPEVTCVVVDVSHEDPEVKFNWYVDGVEVHNAKTKPREEQYASTYRVVSVLTVLHQDWLNGKEYKCKVSNKALPAPIEKTISKAKGQPREPQVYTLPPSRDELTKNQVSLTCLVKGFYPSDIAVEWESNGQPENNYKTTPPYLDSDGSFFLYSKLTVDKSRWQQGNVFSCSVMHEALHNHYTQESLSLSP light 1: not shown heavy 2: EVQLVESGGGLVQPGKSLKLSCEASGFTFSGYGMHWVRQAPGRGLESVAYITSSSINIKYADAVKGRFTVSRDNAKNLLFLQMNILKSEDTAMYYCARFDWDKNYWGQGTMVTVSSASTKGPSVFPLAPSSKSTSGGTAALGCLVKDYFPEPVTVSWNSGALTSGVHTFPAVLQSSGLYSLSSVVTVPSSSLGTQTYICNVNHKPSNTKVDKKVEPKSCDKTHTCPPCPAPELRGGPKVFLFPPKPKDTLMISRTPEVTCVVVDVSHEDPEVKFNWYVDGVEVHNAKTKPREEQYASTYRVVSVLTVLHQDWLNGKEYKCKVSNKALPAPIEKTISKAKGQPREPQVYTLPPSRKELTKNQVSLTCLVKGFYPSDIAVEWESNGQPENNYKTTPPYLDSDGSFFLYSKLTVDKSRWQQGNVFSCSVMHEALHNHYTQKSLSLSP light 2: DIQMTQSPSSLPASLGDRVTINCQASQDISNYLNWYQQKPGKAPKLLIYYTNKLADGVPSRFSGSGSGRDSSFTISSLESEDIGSYYCQQYYNYPWTFGPGTKLEIKRTVAAPSVFIFPPSDEQLKSGTASVVCLLNNFYPREAKVQWKVDNALQSGNSQESVTEQDSKDSTYSLSSTLTLSKADYEKHKVYACEVTHQGLSSPVTKSFNRGEC													1160	0.0712	61600	1.23	0.00053	430000
